The target in one experiment is Soluble Aβ 1-40 (UniProt P05067). As to the kind of experiment: SPR (BIAcore 2000), antibody captured on anti-Ig, soluble Aβ in flow.
The next experiment addresses Soluble Aβ 1-42 (UniProt P05067). The experiment is described as above.

Take Murine anti-Aβ antibody 266: the Kd with Soluble Aβ 1-40 and with Soluble Aβ 1-42 was 0.004 nM each time.
In the case of anti-Aβ murine antibody 4G8, the Kd with Soluble Aβ 1-40 is 23 nM; with Soluble Aβ 1-42, 24 nM.
On to anti-Aβ murine antibody 21F12, for which, in the experiment with Soluble Aβ 1-42, the Kd is 4.4 nM.
